± gives the standard deviation of the averaged measurements.
B1: library; a variant is named by its letters at N, in order (parent)
chain: ACATTTGTTGATACAACCATAAAATGATAATTACACCCATAAATTGATAATTATCACACCCANNNNNNNNNNNNNNCTCTGATCATAGTCAGACCAACATTGCTACGACCCGTATTCGCACCGACAC

What was measured:
[1] = variants of: B1; assay: relative integration efficiency (T-RL orientation) vs wild-type transposon end (log2 (normalized fold change)); transposon end mutated: right end (5 bp flank + 75 bp right end); higher = more efficient transposition; details: with VchCAST RNA-guided transposition machinery (E. coli BL21(DE3) host, lacZ target)
How it was run: (§1)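 Barcoded pools of 1549 left-end or 1849 right-end transposon variants were cloned into a pUC57 mini-transposon donor. Each pool was co-transformed with a T7-driven effector plasmid (CRISPR array, tniQ-cas8-cas7-cas6, tnsA-tnsB-tnsC) into E. coli BL21(DE3) and plated with 0.1 mM IPTG at 37°C for 18 h. Input plasmids and genomic integration junctions were PCR-amplified and Illumina-sequenced, with two biological output replicates and four wild-type barcodes as reference. Relative integration efficiency is output/input barcode abundance fold change, normalised to wild-type barcodes and log-transformed.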

[2] = variants of: B1; assay: relative integration efficiency (T-LR orientation) vs wild-type transposon end (log2 (normalized fold change)); transposon end mutated: right end (5 bp flank + 75 bp right end); higher = more efficient transposition; details: with VchCAST RNA-guided transposition machinery (E. coli BL21(DE3) host, lacZ target)
How it was run: as §1

Row | Variant | relative integration efficiency (log2) [1] | relative integration efficiency (log2) [2]
1 | TAAATTGATTAACC | -0.157 ± 0.13 | 1.35 ± 0.077
2 | TAAATTTCGCTTGC | -0.702 ± 0.069 | 2.429 ± 0.022
3 | ATTTAACTATAACG A24T | -0.752 ± 0.19 | 2.39 ± 0.024
4 | ATTTAACTATAACG A24C | -0.878 ± 0.18 | 2.28 ± 0.015
5 | ATTTAACTATAACG A24G | -0.674 ± 0.13 | 2.25 ± 0.086
6 | TAAATTGATCTTGC | 0.011 ± 0.051 | 0.816 ± 0.13
7 | TAATAACATATTGC | -0.969 ± 0.16 | 2.203 ± 0.0027
8 | TAAATTGATCGGTC | -0.277 ± 0.017 | 1.42 ± 0.094
9 | TAAATTGCTATTGC | -0.207 ± 0.014 | 0.841 ± 0.12
10 | TGAATTGATATTGC | -0.596 ± 0.095 | 1.91 ± 0.29
11 | TACCTTGATATTGC | 1.35 ± 0.074 | 3.9016 ± 0.0014
12 | ATTTAACTATAACG A21C | -1.05 ± 0.21 | 1.892 ± 0.013
13 | ATTTAACTATAACG A21T | -0.978 ± 0.093 | 2 ± 0.062
14 | TAAATTGATTATGC | -0.138 ± 0.008 | 0.414 ± 0.43
15 | ATTATTGATATTGC A62T | -0.325 ± 0.075 | 1.957 ± 0.011
16 | ATTTAACTATAACG A41C | -1.53 ± 0.21 | 1.39 ± 0.29
17 | ATTTAACTATAACG A41T | -0.673 ± 0.15 | 2.347 ± 0.0099
18 | TAATTTGATATTGC | 0.169 ± 0.039 | 0.241 ± 0.14
19 | TAAATTGATATTGC T78A | -0.396 ± 0.15 | -0.018 ± 0.18
20 | TAAATTGATATTGC T78C | -0.00404 ± 0.024 | -0.0349 ± 0.43

Row | Variant | relative integration efficiency (log2) [1] | relative integration efficiency (log2) [2]
21 | TAAATTGATATTGC T78G | 0.0385 ± 0.031 | 0.078 ± 0.44
22 | ATTTAACTATAACG A39G | -0.496 ± 0.057 | 2.47 ± 0.042
23 | ATTTAACTATAACG A39C | -2.44 ± 0.36 | 0.461 ± 0.1
24 | ATTTAACTATAACG A39T | -1.34 ± 0.21 | 1.59 ± 0.1
25 | TAAATTGATCGTGC | -0.217 ± 0.047 | 0.973 ± 0.038
26 | TAAATTGATATTTC | -0.0163 ± 0.045 | -0.13 ± 0.15
27 | TAAATTGATATTTA | 0.1 ± 0.034 | 0.122 ± 0.099
28 | TACCTTGAAATTGC C59A | -1.62 ± 0.24 | 1.94 ± 0.21
29 | TAAGTTGATATTTT C59A | 0.0617 ± 0.048 | -0.156 ± 0.28
30 | TTTATTGATATTGC | 0.0323 ± 0.048 | 0.91 ± 0.071
31 | TAAATTGTAATTGC | -0.121 ± 0.11 | 1.88 ± 0.1
32 | ATTTAACTATAACG A19T | -1.53 ± 0.24 | 2.1 ± 0.09
33 | ATTTAACTATAACG A19C | -1.84 ± 0.3 | 1.06 ± 0.42
34 | ATTTAACTATAACG A19G | -0.904 ± 0.018 | 2.08 ± 0.037
35 | TAAGTTGATATTGC | -0.0544 ± 0.061 | 0.2 ± 0.074
36 | TAAATTGCGATTGC | -0.463 ± 0.06 | 1.51 ± 0.028
37 | TAAATTGATATTGC T54C | -0.0952 ± 0.0069 | -0.015 ± 0.36
38 | TAAATTGATATTGC T54G | 0.0616 ± 0.064 | 0.247 ± 0.082
39 | TAAATTGATATTGC T54A | -0.338 ± 0.15 | 0.141 ± 0.18
40 | ATTTAACTATAACG A16C | -1.24 ± 0.14 | 2 ± 0.11

Row | Variant | relative integration efficiency (log2) [1] | relative integration efficiency (log2) [2]
41 | ATTTAACTATAACG A16T | -0.779 ± 0.2 | 2.59 ± 0.066
42 | ATTTAACTATAACG A16G | -1.04 ± 0.027 | 2.09 ± 0.17
43 | ATTTAACTATAACG | -0.618 ± 0.17 | 2.52 ± 0.22
44 | TAACGGTATATTGC | -0.559 ± 0.17 | 2.2 ± 0.3
45 | ATTTAACTATAACG A23G | -0.928 ± 0.18 | 2.07 ± 0.26
46 | ATTTAACTATAACG A23C | -1.16 ± 0.088 | 1.98 ± 0.17
47 | ATTTAACTATAACG A23T | -0.809 ± 0.12 | 1.952 ± 0.015
48 | ATTTAACTATAACG A33G | -0.971 ± 0.32 | 2.42 ± 0.046
49 | ATTTAACTATAACG A33C | -1.12 ± 0.26 | 2.34 ± 0.17
50 | ATTTAACTATAACG A22G | -1.42 ± 0.27 | 1.36 ± 0.45
51 | ATTTAACTATAACG A22T | -0.696 ± 0.12 | 2.5 ± 0.18
52 | ATTTAACTATAACG A22C | -1.71 ± 0.34 | 1.21 ± 0.057
53 | ATTTAACTATAACG A27T | -1.93 ± 0.43 | 1.735 ± 0.0049
54 | ATTTAACTATAACG A27G | -1.43 ± 0.34 | 2.14 ± 0.29
55 | ATTTAACTATAACG A27C | -1.49 ± 0.28 | 1.82 ± 0.022
56 | TTAATTGATATTGC | -0.072 ± 0.011 | 0.636 ± 0.14
57 | TCAATTGATATTGC | 0.124 ± 0.1 | 2.16 ± 0.12
58 | TAATATGATATTGC | -0.0671 ± 0.049 | 0.438 ± 0.31

— the supplement of paper PMC10201428
